Experiments:
Experiment in all cases: cell-based or functional assay
[1] = target: myc-L1-CAM (myc-tagged rat L1-CAM variant expressed from pMyc-L1-CAM) (rat (variant of rat L1-CAM)) (UniProt Q05695)
[2] = target: myc-L1-CAM-YF (rat (variant of rat L1-CAM)) (UniProt Q05695)
[3] = target: myc-L1-CAM-YH (rat (variant of rat L1-CAM)) (UniProt Q05695)
[4] = target: cell-surface L1-CAM of mouse cerebellar granular neurons (mouse) (UniProt P11627)
Sequence of cell-surface L1-CAM of mouse cerebellar granular neurons (mouse) (P11627 20-1260): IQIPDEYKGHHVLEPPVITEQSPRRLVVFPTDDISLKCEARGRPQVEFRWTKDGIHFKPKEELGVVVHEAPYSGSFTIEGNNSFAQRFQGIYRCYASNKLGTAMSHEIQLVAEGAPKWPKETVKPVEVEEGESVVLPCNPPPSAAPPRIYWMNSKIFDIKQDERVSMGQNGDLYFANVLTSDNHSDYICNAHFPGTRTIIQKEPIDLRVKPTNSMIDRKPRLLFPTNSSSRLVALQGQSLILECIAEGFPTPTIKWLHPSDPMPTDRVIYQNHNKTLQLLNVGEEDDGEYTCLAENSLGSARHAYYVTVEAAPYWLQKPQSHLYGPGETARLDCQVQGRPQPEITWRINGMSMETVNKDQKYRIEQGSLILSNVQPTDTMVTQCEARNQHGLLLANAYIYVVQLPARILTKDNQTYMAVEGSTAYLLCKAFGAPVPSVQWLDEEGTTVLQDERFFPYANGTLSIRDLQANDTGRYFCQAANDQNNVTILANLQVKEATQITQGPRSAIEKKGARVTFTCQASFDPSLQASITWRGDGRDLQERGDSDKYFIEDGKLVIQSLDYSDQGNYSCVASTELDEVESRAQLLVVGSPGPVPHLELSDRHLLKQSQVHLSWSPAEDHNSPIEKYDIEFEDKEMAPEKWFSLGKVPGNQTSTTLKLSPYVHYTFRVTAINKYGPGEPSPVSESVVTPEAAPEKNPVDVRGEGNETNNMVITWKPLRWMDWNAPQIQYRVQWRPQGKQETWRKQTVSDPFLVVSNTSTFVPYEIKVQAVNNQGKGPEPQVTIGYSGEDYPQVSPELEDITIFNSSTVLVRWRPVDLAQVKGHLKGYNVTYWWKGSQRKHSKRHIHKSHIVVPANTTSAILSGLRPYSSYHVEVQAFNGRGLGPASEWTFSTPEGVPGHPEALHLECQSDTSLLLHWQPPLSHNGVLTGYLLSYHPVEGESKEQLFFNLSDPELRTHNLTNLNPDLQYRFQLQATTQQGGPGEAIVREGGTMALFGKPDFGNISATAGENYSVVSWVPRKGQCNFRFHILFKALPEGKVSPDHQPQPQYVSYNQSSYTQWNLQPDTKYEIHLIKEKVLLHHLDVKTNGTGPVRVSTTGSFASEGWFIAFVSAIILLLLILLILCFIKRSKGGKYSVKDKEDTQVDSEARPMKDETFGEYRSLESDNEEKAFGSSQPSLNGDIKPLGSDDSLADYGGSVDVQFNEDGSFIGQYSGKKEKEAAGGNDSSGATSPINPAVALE

Sequence of myc-L1-CAM (myc-tagged rat L1-CAM variant expressed from pMyc-L1-CAM) (rat (variant of rat L1-CAM)) (Q05695 other isoform, or with tags, fused parts or gaps mutant limits assumed): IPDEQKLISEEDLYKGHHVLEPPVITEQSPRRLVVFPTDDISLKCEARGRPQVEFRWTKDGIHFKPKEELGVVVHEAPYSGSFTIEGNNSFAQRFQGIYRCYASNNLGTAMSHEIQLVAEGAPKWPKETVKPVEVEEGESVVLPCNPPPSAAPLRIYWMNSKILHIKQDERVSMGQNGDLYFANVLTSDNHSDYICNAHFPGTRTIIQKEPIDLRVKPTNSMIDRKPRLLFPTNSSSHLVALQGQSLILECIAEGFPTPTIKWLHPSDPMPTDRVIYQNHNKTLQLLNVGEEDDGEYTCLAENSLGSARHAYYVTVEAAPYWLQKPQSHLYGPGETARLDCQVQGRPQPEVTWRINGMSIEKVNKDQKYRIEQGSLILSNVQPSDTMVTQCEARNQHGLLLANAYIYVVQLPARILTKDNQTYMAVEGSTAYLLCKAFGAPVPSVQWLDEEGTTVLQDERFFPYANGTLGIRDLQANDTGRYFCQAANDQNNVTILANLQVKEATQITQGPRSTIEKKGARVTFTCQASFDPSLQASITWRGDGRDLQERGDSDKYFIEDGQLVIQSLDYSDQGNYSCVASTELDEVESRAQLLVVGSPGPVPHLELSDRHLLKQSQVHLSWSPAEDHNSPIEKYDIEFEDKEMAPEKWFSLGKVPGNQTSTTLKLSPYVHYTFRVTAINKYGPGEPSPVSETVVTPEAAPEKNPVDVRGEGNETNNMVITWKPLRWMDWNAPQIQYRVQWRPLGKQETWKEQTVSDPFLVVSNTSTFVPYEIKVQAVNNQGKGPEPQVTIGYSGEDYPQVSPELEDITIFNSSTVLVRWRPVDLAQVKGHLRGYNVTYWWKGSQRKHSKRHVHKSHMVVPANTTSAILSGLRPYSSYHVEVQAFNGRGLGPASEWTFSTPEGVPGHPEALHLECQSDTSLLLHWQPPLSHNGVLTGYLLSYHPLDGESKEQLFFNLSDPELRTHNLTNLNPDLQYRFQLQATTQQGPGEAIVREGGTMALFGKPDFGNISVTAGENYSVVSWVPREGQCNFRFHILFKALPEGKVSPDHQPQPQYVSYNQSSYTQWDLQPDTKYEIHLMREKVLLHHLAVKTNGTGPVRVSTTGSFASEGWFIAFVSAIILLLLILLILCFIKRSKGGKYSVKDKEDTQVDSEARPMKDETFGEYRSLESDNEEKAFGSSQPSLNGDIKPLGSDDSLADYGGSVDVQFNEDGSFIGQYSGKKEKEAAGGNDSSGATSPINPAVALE
Sequence of myc-L1-CAM-YH (rat (variant of rat L1-CAM)) (Q05695 other isoform, or with tags, fused parts or gaps mutant): as the sequence (Q05695 other isoform, or with tags, fused parts or gaps mutant limits assumed) above
Sequence of myc-L1-CAM-YF (rat (variant of rat L1-CAM)) (Q05695 other isoform, or with tags, fused parts or gaps mutant): as the sequence (Q05695 other isoform, or with tags, fused parts or gaps mutant limits assumed) above

% of trials with retrograde movement of L1-CAM-bound beads (wild-type, untreated ND-7 cells) [1] [%] | % of trials with retrograde transport of 9E10-coated beads (wild-type L1-CAM) [1] [%] | % of trials with retrograde transport of L1-CAM-bound beads after NGF treatment (100 ng/mL, 1 hour) [1] [%] | % of trials with stationary behavior of L1-CAM-bound beads (wild-type, untreated ND-7 cells) [1] [%] | % of trials with stationary behavior of L1-CAM-bound beads after NGF treatment (100 ng/mL, 1 hour) [1] [%] | % of trials with retrograde movement of L1-CAM-bound beads [2] [%] | % of trials with stationary behavior of L1-CAM-bound beads [2] [%] | % of trials with retrograde movement of L1-CAM-bound beads [3] [%] | % of trials with stationary behavior of L1-CAM-bound beads [3] [%] | neurite extension of mouse cerebellar granular neurons on Ng-CAM after 24 h, with AP-YF peptide (30 µg/ml) [4] [µm] | neurite extension of mouse cerebellar granular neurons on Ng-CAM after 24 h, with control AP-Scramble peptide [4] [µm] | neurite extension on Ng-CAM with AP-YF above the level with control peptide [4] [%] | Substance
61.9 | 68.9 | 100 | 28.6 | 18.2 | 37.5 | 62.5 | 92.9 | 0 |  |  |  | ankyrin B (endogenous in ND-7 cells)
 |  |  |  |  |  |  |  |  | 32 | 21 | 55 | chick Ng-CAM (chick homolog of L1-CAM) (from UniProt Q03696 21-1266) (receptor)

— patent publication US20060142189A1
